Experimental data as given in paper PMC2756588.

T1: Abp1, P15891
T1 sequence (P15891 535-592, looked up): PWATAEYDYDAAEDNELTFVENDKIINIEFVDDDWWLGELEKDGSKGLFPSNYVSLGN

T2: Bbc1, P47068
T2 sequence (P47068 1-78, looked up): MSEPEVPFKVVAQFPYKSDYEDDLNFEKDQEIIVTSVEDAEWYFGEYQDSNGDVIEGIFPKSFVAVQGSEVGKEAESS

T3: Boi1, P38041
T3 sequence (P38041 1-86, looked up): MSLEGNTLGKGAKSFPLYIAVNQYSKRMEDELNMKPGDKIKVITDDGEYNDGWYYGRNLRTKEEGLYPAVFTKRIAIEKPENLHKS

T4: Boi2, P39969
T4 sequence (P39969 32-116, looked up): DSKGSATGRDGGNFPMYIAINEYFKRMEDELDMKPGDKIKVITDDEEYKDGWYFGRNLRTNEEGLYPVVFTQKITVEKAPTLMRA

T5: Bud14, P27637
T5 sequence (P27637 247-328, looked up): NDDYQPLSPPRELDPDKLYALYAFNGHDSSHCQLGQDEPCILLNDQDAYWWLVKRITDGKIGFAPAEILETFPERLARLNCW

T6: Bzz1-1, P38822
T6 sequence (P38822 478-572, looked up): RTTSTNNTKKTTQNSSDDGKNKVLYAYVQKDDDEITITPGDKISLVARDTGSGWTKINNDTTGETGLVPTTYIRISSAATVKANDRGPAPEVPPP

T7: Bzz1-2, P38822
T7 sequence (P38822 568-633, looked up): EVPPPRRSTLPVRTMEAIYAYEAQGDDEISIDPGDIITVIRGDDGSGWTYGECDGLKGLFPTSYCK

T8: Cdc25, P04821
T8 sequence (P04821 50-136, looked up): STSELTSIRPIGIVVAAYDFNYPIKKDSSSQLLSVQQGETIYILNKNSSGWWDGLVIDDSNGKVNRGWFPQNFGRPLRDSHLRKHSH

T9: Cyk3, Q07533
T9 sequence (Q07533 1-83, looked up): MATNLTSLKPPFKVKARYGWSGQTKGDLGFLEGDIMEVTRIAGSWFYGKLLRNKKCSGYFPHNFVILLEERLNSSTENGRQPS

T10: Fus1, P11710
T10 sequence (P11710 432-512, looked up): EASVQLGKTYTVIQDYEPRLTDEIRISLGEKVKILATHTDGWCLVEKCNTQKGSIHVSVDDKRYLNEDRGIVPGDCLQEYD

T11: Hof1, Q05080
T11 sequence (Q05080 590-669, looked up): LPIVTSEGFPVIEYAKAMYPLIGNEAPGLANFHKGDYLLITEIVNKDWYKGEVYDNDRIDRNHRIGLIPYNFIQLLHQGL

T12: Hse1, P38753
T12 sequence (P38753 208-285, looked up): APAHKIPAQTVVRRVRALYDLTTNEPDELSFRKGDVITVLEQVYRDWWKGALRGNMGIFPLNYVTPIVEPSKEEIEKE

T13: Lsb1, P53281
T13 sequence (P53281 45-122, looked up): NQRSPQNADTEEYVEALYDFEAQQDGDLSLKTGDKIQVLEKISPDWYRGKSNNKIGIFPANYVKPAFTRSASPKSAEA

T14: Lsb3, P43603
T14 sequence (P43603 385-451, looked up): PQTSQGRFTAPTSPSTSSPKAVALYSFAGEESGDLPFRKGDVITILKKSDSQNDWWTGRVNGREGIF

T15: Lsb4, P32793
T15 sequence (P32793 402-468, looked up): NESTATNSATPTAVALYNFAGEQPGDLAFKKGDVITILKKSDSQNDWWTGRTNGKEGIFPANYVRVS

T16: Myo5, Q04439
T16 sequence (Q04439 1072-1160, looked up): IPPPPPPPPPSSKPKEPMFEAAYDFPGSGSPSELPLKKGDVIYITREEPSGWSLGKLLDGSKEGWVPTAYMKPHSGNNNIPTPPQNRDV

T17: Nbp2, Q12163
T17 sequence (Q12163 103-180, looked up): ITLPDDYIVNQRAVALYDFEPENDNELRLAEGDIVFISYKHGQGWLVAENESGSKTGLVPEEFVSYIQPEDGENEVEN

T18: Pex13, P80667
T18 sequence (P80667 295-386, looked up): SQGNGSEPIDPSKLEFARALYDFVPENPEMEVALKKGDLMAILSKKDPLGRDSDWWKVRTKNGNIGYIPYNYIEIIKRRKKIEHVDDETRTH

T19: Pin3, Q06449
T19 sequence (Q06449 53-122, looked up): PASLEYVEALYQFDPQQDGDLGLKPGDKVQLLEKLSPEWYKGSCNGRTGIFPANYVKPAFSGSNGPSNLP

T20: Sla1-2, P32790
T20 sequence (P32790 60-140, looked up): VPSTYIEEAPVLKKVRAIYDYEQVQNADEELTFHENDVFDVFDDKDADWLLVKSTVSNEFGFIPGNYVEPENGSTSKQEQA

T21: Sla1-3, P32790
T21 sequence (P32790 344-424, looked up): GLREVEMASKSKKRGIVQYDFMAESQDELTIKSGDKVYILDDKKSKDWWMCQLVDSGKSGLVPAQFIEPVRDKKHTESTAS


Columns and labels:
Experiment in all cases: SPOT array
Abp1, P15891 = target: T1, Abp1, P15891; details: median of control spots 935
Bbc1, P47068 = target: T2, Bbc1, P47068; details: median of control spots 796
Bem1-1, P29366 = details: median of control spots 4282
Bem1-2, P29366 = details: median of control spots 4347
Boi1, P38041 = target: T3, Boi1, P38041; details: median of control spots 1162
Boi2, P39969 = target: T4, Boi2, P39969; details: median of control spots 1161
Bud14, P27637 = target: T5, Bud14, P27637; details: median of control spots 956
Bzz1-1, P38822 = target: T6, Bzz1-1, P38822; details: median of control spots 4446
Bzz1-2, P38822 = target: T7, Bzz1-2, P38822; details: median of control spots 4538
Cdc25, P04821 = target: T8, Cdc25, P04821; details: median of control spots 969
Cyk3, Q07533 = target: T9, Cyk3, Q07533; details: median of control spots 1451
Fus1, P11710 = target: T10, Fus1, P11710; details: median of control spots 1200
GST = details: median of control spots 978
Hof1, Q05080 = target: T11, Hof1, Q05080; details: median of control spots 4086
Hse1, P38753 = target: T12, Hse1, P38753; details: median of control spots 1727
Lsb1, P53281 = target: T13, Lsb1, P53281; details: median of control spots 388
Lsb3, P43603 = target: T14, Lsb3, P43603; details: median of control spots 406
Lsb4, P32793 = target: T15, Lsb4, P32793; details: median of control spots 397
Myo3, P36006 = details: median of control spots 468
Myo5, Q04439 = target: T16, Myo5, Q04439; details: median of control spots 471
Nbp2, Q12163 = target: T17, Nbp2, Q12163; details: median of control spots 357
Pex13, P80667 = target: T18, Pex13, P80667; details: median of control spots 1341
Pin3, Q06449 = target: T19, Pin3, Q06449; details: median of control spots 2171
Rvs167, P39743 = details: median of control spots 2707
Sho1, P40073 = details: median of control spots 1148
Sla1-2, P32790 = target: T20, Sla1-2, P32790; details: median of control spots 712
Sla1-3, P32790 = target: T21, Sla1-3, P32790; details: median of control spots 5475

Chain of Rvs167, P39743 (P39743 419-482): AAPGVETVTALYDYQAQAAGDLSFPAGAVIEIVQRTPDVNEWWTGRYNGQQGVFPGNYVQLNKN
Chain of Bem1-2, P29366 (P29366 139-227): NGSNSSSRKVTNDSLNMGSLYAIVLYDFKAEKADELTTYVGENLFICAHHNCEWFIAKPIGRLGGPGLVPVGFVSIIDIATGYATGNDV
Chain of Sho1, P40073 (P40073 287-367): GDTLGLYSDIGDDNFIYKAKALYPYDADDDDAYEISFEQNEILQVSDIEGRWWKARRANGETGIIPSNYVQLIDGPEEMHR
Chain of Bem1-1, P29366 (P29366 55-141): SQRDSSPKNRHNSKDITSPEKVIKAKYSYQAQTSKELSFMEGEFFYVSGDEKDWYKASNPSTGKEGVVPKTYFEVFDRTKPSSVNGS

Row | SPOT intensity (Abp1, P15891) | SPOT intensity (Bbc1, P47068) | SPOT intensity (Bem1-1, P29366) | SPOT intensity (Bem1-2, P29366) | SPOT intensity (Boi1, P38041) | SPOT intensity (Boi2, P39969) | SPOT intensity (Bud14, P27637) | SPOT intensity (Bzz1-1, P38822) | SPOT intensity (Bzz1-2, P38822) | SPOT intensity (Cdc25, P04821) | SPOT intensity (Cyk3, Q07533) | SPOT intensity (Fus1, P11710) | SPOT intensity (GST) | SPOT intensity (Hof1, Q05080) | SPOT intensity (Hse1, P38753) | SPOT intensity (Lsb1, P53281) | SPOT intensity (Lsb3, P43603) | SPOT intensity (Lsb4, P32793) | SPOT intensity (Myo3, P36006) | SPOT intensity (Myo5, Q04439) | Binder | also measured
1 | 25 | 57 | 0 | 6 | 2 | 1 | 3 | 0 | 4 | 0 | 1 | 6 | 0 | 1 | 9 | 0 | 0 | 0 | 0 | 0 | GRLRPKRIAPWHLIQ | SPOT intensity (Nbp2, Q12163): 10; SPOT intensity (Pex13, P80667): 8; SPOT intensity (Pin3, Q06449): 5; SPOT intensity (Rvs167, P39743): 8; SPOT intensity (Sho1, P40073): 83; SPOT intensity (Sla1-2, P32790): 0; SPOT intensity (Sla1-3, P32790): 41
2 | 47 | 79 | 0 | 2 | 3 | 0 | 9 | 2 | 1 | 15 | 0 | 14 | 3 | 6 | 12 | 71 | 0 | 2 | 4 | 0 | GLRRARYKFPGQQKI | SPOT intensity (Nbp2, Q12163): 22; SPOT intensity (Pex13, P80667): 2; SPOT intensity (Pin3, Q06449): 4; SPOT intensity (Rvs167, P39743): 6; SPOT intensity (Sho1, P40073): 69; SPOT intensity (Sla1-2, P32790): 1; SPOT intensity (Sla1-3, P32790): 50

Continued, binder first:

Row | Binder | SPOT intensity (Abp1, P15891) | SPOT intensity (Bbc1, P47068) | SPOT intensity (Bem1-1, P29366) | SPOT intensity (Bem1-2, P29366) | SPOT intensity (Boi1, P38041) | SPOT intensity (Boi2, P39969) | SPOT intensity (Bud14, P27637) | SPOT intensity (Bzz1-1, P38822) | SPOT intensity (Bzz1-2, P38822) | SPOT intensity (Cdc25, P04821) | SPOT intensity (Cyk3, Q07533) | SPOT intensity (Fus1, P11710) | SPOT intensity (GST) | SPOT intensity (Hof1, Q05080) | SPOT intensity (Hse1, P38753) | SPOT intensity (Lsb1, P53281) | SPOT intensity (Lsb3, P43603) | SPOT intensity (Lsb4, P32793) | SPOT intensity (Myo3, P36006) | SPOT intensity (Myo5, Q04439) | also measured
3 | QHQQRQPKRPKRYSL | 106 | 211 | 1 | 147 | 13 | 4 | 8 | 0 | 17 | 22 | 1 | 55 | 8 | 3 | 33 | 5 | 36 | 101 | 2 | 2 | SPOT intensity (Nbp2, Q12163): 21; SPOT intensity (Pex13, P80667): 6; SPOT intensity (Pin3, Q06449): 2; SPOT intensity (Rvs167, P39743): 0; SPOT intensity (Sho1, P40073): 115; SPOT intensity (Sla1-2, P32790): 5; SPOT intensity (Sla1-3, P32790): 78
4 | ALRRRLPVTRSKINW | 134 | 245 | 0 | 7 | 13 | 1 | 6 | 0 | 7 | 46 | 2 | 25 | 2 | 14 | 35 | 46 | 4 | 7 | 10 | 0 | SPOT intensity (Nbp2, Q12163): 149; SPOT intensity (Pex13, P80667): 4; SPOT intensity (Pin3, Q06449): 10; SPOT intensity (Rvs167, P39743): 8; SPOT intensity (Sho1, P40073): 196; SPOT intensity (Sla1-2, P32790): 0; SPOT intensity (Sla1-3, P32790): 73
5 | IKKRNKIRLPSGSPE | 136 | 101 | 1 | 0 | 5 | 3 | 10 | 2 | 4 | 18 | 9 | 52 | 3 | 6 | 6 | 104 | 0 | 6 | 7 | 0 | SPOT intensity (Nbp2, Q12163): 24; SPOT intensity (Pex13, P80667): 2; SPOT intensity (Pin3, Q06449): 4; SPOT intensity (Rvs167, P39743): 4; SPOT intensity (Sho1, P40073): 122; SPOT intensity (Sla1-2, P32790): 0; SPOT intensity (Sla1-3, P32790): 43
6 | SLSRRRFSLPSMPNV | 70 | 98 | 0 | 53 | 1 | 1 | 15 | 3 | 17 | 35 | 1 | 27 | 0 | 77 | 97 | 1050 | 4 | 9 | 27 | 4 | SPOT intensity (Nbp2, Q12163): 34; SPOT intensity (Pex13, P80667): 28; SPOT intensity (Pin3, Q06449): 66; SPOT intensity (Rvs167, P39743): 4; SPOT intensity (Sho1, P40073): 84; SPOT intensity (Sla1-2, P32790): 2; SPOT intensity (Sla1-3, P32790): 388
